Data reported in paper PMC6368608 (Nature Communications, 2019).
Changes are numbered by the printed parent chain. Names may count otherwise.

Assays:
Details in all cases: both partners purified
[1] = biological target: T1, C.CH505TF gp120 (HIV-1 clade C, CH505 transmitted/founder, UniProt M4M0W3, strain); test: SPR
[2] = biological target: T1, C.CH505TF gp120; test: SPR; remark: listed apart in the source
[3] = biological target: T2, C.CH505TF gp120 (HIV-1 clade C, CH505 transmitted/founder, UniProt M4M0W3, strain); test: SPR; BIAcore T200; […]) 5 min at 50 µL/min, 10 min dissociation; […]; global 1:1 Langmuir fit; […]
[4] = biological target: T2, C.CH505TF gp120; test: as above; remark: listed apart in the source

B1: CH103 UCA (antibody, V domains shown)
VH: QVQLQESGPGLVKPSETLSLTCTVSGGSISSYYWSWIRQPPGKGLEWIGYIYYSGSTNYNPSLKSRVTISVDTSKNQFSLKLSSVTAADTAVYYCASLPRGQLVNAYFDYWGQGTLVTVSS
VL: not shown
notes: also called unmutated common ancestor of the CH103 lineage
Work on B1 yielded a kon [1] of 23500 M⁻¹ s⁻¹.

B2: CH103 UCA-S30G/S31G (antibody, V domains shown)
VH: B1 VH with S30G, S31G
VL: not shown
Work on B2 yielded a koff [1] of 0.011 s⁻¹ and a kon [1] of 25200 M⁻¹ s⁻¹.

B3: CH103-S14P (antibody, V domains shown)
V domain 1: QVQLQESGPGVVKPSETLSLTCTVSGGSMGGTYWSWLRLSPGKGLEWIGYIFHTGETNYSPSLKGRVSISVDTSEDQFSLRLRSVTAADTAVYFCASLPRGQLVNAYFRNWGRGSLVSVTA
V domain 2: YELTQPPSVSVSPGQTATITCSGASTNVCWYQVKPGQSPEVVIFENYKRPSGIPDRFSGSKSGSTATLTIRGTQAIDEADYYCQVWDSFSTFVFGSGTQVTVL
In the case of B3, the Kd [1] is reported as 50 nM, the koff [1] is reported as 0.000262 s⁻¹ and the kon [1] is reported as 5200 M⁻¹ s⁻¹.

B4: CH103 UCA-P14S (antibody, V domains shown)
VH: B1 VH with P14S
VL: not shown
In the case of B4, the koff [1] is reported as 0.0112 s⁻¹ and the kon [1] is reported as 30000 M⁻¹ s⁻¹.

B5: CH103-S14P/G30S (antibody, V domains shown)
V domain 1: B3 V domain 1 with G30S
V domain 2: B3 V domain 2
B5 was tested, and the Kd [1] was 70 nM, the koff [1] was 0.0003 s⁻¹ and the kon [1] was 4000 M⁻¹ s⁻¹.

B6: CH103 lineage intermediate I3 (antibody, V domains shown)
VH: QVQLQESGPGLVKSSETLSLTCTVSGGSMGGYYWSWLRQSPVKGLEWIGYIFHTGHTNYNPSLESRVTVSVDTSENQFSLRLRSVTAADTAVYYCASLPRGQLVNAFFDNWGQGTLVTVAS
VL: not shown
With B6 the koff [2] was 0.000234 s⁻¹ and the kon [2] was 24500 M⁻¹ s⁻¹.

B7: CH103 UCA-S30G (antibody, V domains shown)
VH: B1 VH with S30G
VL: not shown
In the case of B7, the koff [1] is reported as 0.0117 s⁻¹ and the kon [1] is reported as 29600 M⁻¹ s⁻¹.

B8: CH103 UCA (antibody, V domains shown)
VH: B1 VH
VL: not shown
notes: also called unmutated common ancestor of the CH103 lineage; wild-type UCA
Work on B8 yielded a koff [3] of 0.0101 s⁻¹, a kon [3] of over 10000 M⁻¹ s⁻¹ and a Kd [4] of 430 nM.

B9: UCA-P14S (antibody, V domains shown)
VH: B1 VH with P14S
VL: not shown
B9 gave a Kd [4] of 370 nM.

B10: UCA-S30G (antibody, V domains shown)
VH: B1 VH with S30G
VL: not shown
Binder B10 has a Kd [4] of 400 nM.

B11: UCA-S30G/S31G (antibody, V domains shown)
VH: B1 VH with S30G, S31G
VL: not shown
For B11, the Kd [4] was 440 nM.

B12: I3 (CH103 lineage intermediate) (antibody, V domains shown)
VH: B6 VH
VL: not shown
Work on B12 yielded a Kd [4] of 9.53 nM.
